From patent US20200332006A1 (ULTRAHUMAN NINE, published 2020)

Key:
[1] = molecular target: T1, human LSAMP, expressed on HEK293 cells (human, UniProt Q13449 29-315); experiment: flow cytometry on live transfected HEK293 cells
T1 construct: also called BC033803
T1 sequence: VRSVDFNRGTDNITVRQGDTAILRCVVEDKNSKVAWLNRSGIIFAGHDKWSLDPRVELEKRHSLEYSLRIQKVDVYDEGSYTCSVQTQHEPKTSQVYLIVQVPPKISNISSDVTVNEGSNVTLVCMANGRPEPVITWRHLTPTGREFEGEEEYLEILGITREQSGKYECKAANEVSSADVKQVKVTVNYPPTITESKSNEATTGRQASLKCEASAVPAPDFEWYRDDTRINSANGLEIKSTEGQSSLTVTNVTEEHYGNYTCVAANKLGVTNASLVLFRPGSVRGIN
Method: (§1) FIG. 11. […] Analyses of binding specificity were performed on HEK293 cells transiently transfected with plasmids encoding either human PD1, human BTN2A1, human LSAMP, human CD20 or ZS green marker only. Each antibody was used in staining at […] concentration and histograms are indicated per antibody in this figure.
(§2) Human cell membrane receptor proteome arrays were performed at Retrogenix Ltd. Primary screens: 2 μg/ml of each antibody was screened for binding against fixed HEK293 cells/slides expressing 5528 human plasma membrane and tethered secreted proteins individually. […] Antibody binding was detected using AF647 fluorescent secondary anti-human IgG1 antibody. Primary hits (duplicate spots) were identified by analysing fluorescence (AF647 and ZsGreen1) on ImageQuant. Confirmation/specificity screens: Expression vectors encoding ZsGreen1 only, or ZsGreen1 and CD20, PD1, BTN2A1, or LSAMP were transfected into human HEK293 cells. […] Cells were washed, and incubated with the same AF647 anti-human IgG Fc detection antibody as used in the cell microarray screens. Cells were again washed, and analysed by flow cytometry using an Accuri flow cytometer (BD). A 7AAD live/dead dye was used to exclude dead cells, and ZsGreen1-positive cells (i.e. transfected cells) were selected for analyses.

[2] = molecular target: T2, human CD20, expressed on HEK293 cells (human, UniProt P11836 1-297); experiment: flow cytometry on live transfected HEK293 cells
T2 construct: whole, on cells
T2 sequence (looked up): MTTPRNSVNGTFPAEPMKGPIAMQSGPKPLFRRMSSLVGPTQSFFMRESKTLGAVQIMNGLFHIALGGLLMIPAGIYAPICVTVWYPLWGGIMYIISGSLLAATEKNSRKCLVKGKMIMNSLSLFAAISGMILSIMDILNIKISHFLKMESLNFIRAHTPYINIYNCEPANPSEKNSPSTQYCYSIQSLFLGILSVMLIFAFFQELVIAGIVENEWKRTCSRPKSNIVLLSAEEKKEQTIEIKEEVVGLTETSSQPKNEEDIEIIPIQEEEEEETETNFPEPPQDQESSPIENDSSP
Method: as §1, §2

[3] = molecular target: T3, human BTN2A1, expressed on HEK293 cells (human, UniProt Q7KYR7 29-527); experiment: flow cytometry on transfected HEK293 cells, 2 ug/ml IgG
T3 construct: also called NM_007049
T3 sequence: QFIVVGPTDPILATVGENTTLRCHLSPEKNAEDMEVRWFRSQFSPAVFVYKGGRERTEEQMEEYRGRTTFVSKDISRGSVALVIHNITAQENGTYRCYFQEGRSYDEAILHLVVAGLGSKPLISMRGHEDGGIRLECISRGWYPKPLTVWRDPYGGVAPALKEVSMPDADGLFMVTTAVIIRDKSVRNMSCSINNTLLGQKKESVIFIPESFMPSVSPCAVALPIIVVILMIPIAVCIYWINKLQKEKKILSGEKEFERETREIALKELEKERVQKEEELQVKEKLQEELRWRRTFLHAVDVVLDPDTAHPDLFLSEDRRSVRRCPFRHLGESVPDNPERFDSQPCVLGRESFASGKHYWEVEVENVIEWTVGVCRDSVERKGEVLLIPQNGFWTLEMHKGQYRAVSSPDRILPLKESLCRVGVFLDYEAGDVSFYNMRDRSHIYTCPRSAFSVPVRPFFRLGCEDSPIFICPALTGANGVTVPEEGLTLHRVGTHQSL
Method: as §1, §2

[4] = molecular target: T1, human LSAMP, expressed on HEK293 cells; experiment: as above
Method: as §1, §2

[5] = molecular target: T2, human CD20, expressed on HEK293 cells; experiment: as above
Method: as §1, §2

[6] = molecular target: T3, human BTN2A1, expressed on HEK293 cells; experiment: Retrogenix cell microarray, fixed HEK293 cells
Method: as §2

[7] = molecular target: T4, cynomolgus monkey PD1, membrane-expressed on CHO-K1 stable cell line (cynomolgus monkey, UniProt Q15116 25-288 (human entry)); experiment: flow cytometry on CHO cells stably transfected with cyno PD1 (reference antibody)
T4 construct: Genscript cell line M00572; also called membrane-presented cyno PD1
T4 chain: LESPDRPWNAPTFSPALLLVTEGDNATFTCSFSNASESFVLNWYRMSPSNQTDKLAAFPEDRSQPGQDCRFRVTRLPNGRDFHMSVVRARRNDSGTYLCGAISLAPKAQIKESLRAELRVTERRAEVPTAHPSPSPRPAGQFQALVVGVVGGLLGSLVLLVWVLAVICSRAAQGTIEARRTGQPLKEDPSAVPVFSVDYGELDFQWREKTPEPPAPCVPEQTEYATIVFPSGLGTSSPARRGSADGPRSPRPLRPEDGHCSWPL
Method: The IgG samples were titrated in three-fold serial dilutions starting at 500 nM to 0.98 nM. Binding of IgGs was detected with a mouse anti-human IgG conjugated to FITC. Results were analyzed by examining the Mean Fluorescence Intensity (MFI) of 10000 cells per sample in the BL-1 channel detector of a flow cytometer (Attune™ NxT Acoustic Focusing Cytometer, Invitrogen/ThermoFisher Scientific).
Antibodies to PD1 were analysed for concentration-dependent binding at the cell surface via flow cytometry. Initial analyses were performed on CHO cells stably-transfected with human or cyno PD1.

[8] = molecular target: T5, human PD1, membrane-expressed on transfected cells (CHO-K1 stable line, HEK293 transfectants, PD1 effector … (human, UniProt Q15116 25-288)); experiment: Retrogenix cell microarray, fixed HEK293 cells, 2 ug/ml IgG
T5 construct: also called PD1 (PDCD1) NM_005018; membrane-presented human PD1
T5 sequence (Q15116 25-288 limits assumed): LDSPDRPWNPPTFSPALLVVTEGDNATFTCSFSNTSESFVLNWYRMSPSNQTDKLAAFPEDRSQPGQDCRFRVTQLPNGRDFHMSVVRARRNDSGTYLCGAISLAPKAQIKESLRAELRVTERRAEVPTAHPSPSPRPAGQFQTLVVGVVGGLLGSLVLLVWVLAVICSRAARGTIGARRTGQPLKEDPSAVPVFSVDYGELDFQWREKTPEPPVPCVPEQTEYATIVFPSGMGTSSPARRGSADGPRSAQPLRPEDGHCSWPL

- binding result [1]: no binding (tested: 2 ug/ml)
- binding result [2]: no binding (tested: 2 ug/ml)
- fold fluorescence change versus mock (ZSgreen only) cells [3]: 1.2 fold
- fold fluorescence change versus mock (ZSgreen only) cells [4]: 1.5 fold
- fold fluorescence change versus mock (ZSgreen only) cells [5]: 1.4 fold
- binding result [6]: no binding (tested: 2 ug/ml)
- binding result [7]: binds
- binding result [8]: binds
B1: Hu317 humanized anti-PD1 antibody, IgG1null format (antibody, V domains shown)
VH: QVQLQESGPGLVKPSETLSLTCTVSGFSLTSYGVHWIRQPPGKGLEWIGVIYADGSTNYNPSLKSRVTISKDTSKNQVSLKLSSVTAADTAVYYCARAYGNYWYIDVWGQGTTVTVSS
VL: DIVMTQSPDSLAVSLGERATINCKSSESVSNDVAWYQQKPGQPPKLLINYAFHRFTGVPDRFSGSGYGTDFTLTISSLQAEDVAVYYCHQAYSSPYTFGQGTKLEIK
notes: Tested as IgG1null (human IgG1 L234A, L235A, G237A) with human Ckappa; also called hu317 IgG1
